Values quoted from earlier work as cited in article PMC4117600.
Read-outs that look alike come from different tables or passages of the source.

Legend:
CCR4 (Homo sapiens) [1] = target: CCR4 (Homo sapiens) (UniProt P51679)
CCR4 (Homo sapiens) [2] = target: CCR4 (Homo sapiens) (UniProt P51679); remark: listed apart in the source

CCR4 (Homo sapiens), sequence (P51679 whole entry): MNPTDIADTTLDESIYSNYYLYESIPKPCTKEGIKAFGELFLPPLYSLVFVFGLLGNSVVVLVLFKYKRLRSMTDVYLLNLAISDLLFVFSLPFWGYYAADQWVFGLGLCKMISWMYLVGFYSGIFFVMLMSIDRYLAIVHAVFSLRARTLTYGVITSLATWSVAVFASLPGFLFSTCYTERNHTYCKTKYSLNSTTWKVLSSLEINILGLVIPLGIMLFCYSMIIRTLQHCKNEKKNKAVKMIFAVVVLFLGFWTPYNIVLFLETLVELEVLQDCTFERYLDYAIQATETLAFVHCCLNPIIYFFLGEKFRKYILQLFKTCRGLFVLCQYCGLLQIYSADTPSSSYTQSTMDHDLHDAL
CCL22, sequence (O00626 25-93): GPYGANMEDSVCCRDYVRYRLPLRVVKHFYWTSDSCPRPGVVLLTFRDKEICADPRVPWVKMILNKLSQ
CCL17, sequence (Q92583 24-94): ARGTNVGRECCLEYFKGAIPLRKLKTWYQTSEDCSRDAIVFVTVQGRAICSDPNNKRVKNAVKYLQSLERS

## CCL17 (from UniProt Q92583)
CCR4 (Homo sapiens) [1]
  Kd: 2.1 nM

## CCL22 (from UniProt O00626)
CCR4 (Homo sapiens) [2]
  Kd: 0.18 nM
